Data: patent US12611470B2, “Chromatin-opening element for stable long term gene expression” (CZ Biohub SF, LLC, priority 2019, dated 2026)

Test system: P19 cells
Assay: Lentiviral transduction silencing experiment, UCOE linked to CMV, EF1α, RSV or PGK promoter driving GFP
Type: cell-based, mouse
Excerpt: The graphs show the raw data of measured percent GFP positive cells (% GFP+) for each construct over time. Transduced populations were sorted into triplicate wells using FACS at day 0 (5 days after lentiviral transductions) to begin the study at 100% GFP positive cells. Expression is lost quickly within the first 10 days, and then stabilizes around day 15. Data is reported as mean±SD from biological triplicates. Two positive UCOE controls (A2UCOE, 3′UCOE) and a negative control (no insulator region) were used.
Percent GFP positive cells at the final timepoint (day 26 for CMV and RSV, day 27 for PGK and EF1α) of the lentivirus silencing experiment across the four tested promoters is plotted. P19 cells were FACS-sorted five days after transduction (day 0) and then assayed over a 26 or 27-day time period thereafter. Data is reported as mean±SD from three biological replicates.
Two plasmids (pCS3800: encoding HIV-1 Gag; pCS380: encoding VSVg envelope protein) were used with varying versions of the donor plasmid pCS3799. HEK293T cells were plated at 5×10^6 cells in a 10 cm dish. Twenty-four hours after plating, the three plasmids (10 μg donor, 8 μg pCS3800, 10 μg pCS3801) were co-transfected together using a calcium phosphate protocol (Zufferey, R. T. and Trono, D. (2001) Current Protocols in Human Genetics, 26 (1), 12.10.1-12.10.12; DOI: 10.1002/0471142905.hg1210s26 (55)). The total DNA was brought to 500 μL in water, to which 500 μL of 2×HEPES-buffered saline, pH7.0 (Alfa Aesar) was added and mixed. One-tenth of the total volume (100 μL) of 2.5 M calcium chloride (Sigma-Aldrich) was then added to the mixture, followed by a 20-minute incubation. The mixture was then added to the plate in a dropwise manner. Media was replaced six hours later, and the supernatant was collected at 48 hr after the transfection, filtered through 0.4 μm filter, and frozen at −80° C. in 1 mL aliquots. Lentiviral aliquots were thawed in a 37° C. bead bath before transductions.
P19 cells were plated at 20-30,000 cells/well in 12-well plates one day before transduction. Twenty-four hours after plating, cells were transduced at varying dilutions of the lentiviral stock (ranging from 1:2 to 1:100) in DMEM+10% FBS with 8 μg/mL polybrene (Santa Cruz Biotechnologies). Media was refreshed on P19 cells 24 hours after transduction, and cells were passaged and assayed through a MACSQuant® VYB flow cytometer (Miltenyi Biotec) 48 h after transduction. MOI was determined by reporter expression at this timepoint using the following formula: MOI=ln (1/1-p) where p is the % of cells that are GFP positive at 48 hours post-transduction (Chen, S. et al. (2015) Cell, 160, 1246-1260 (56)).
Cells were FACS-sorted on the BD Influx™ cell sorter at the Stanford FACS Facility using the 488-nm laser and 525/40 filter to assay GFP expression. After gating for singlets and viability, GFP+ gate was drawn to be <0.1% GFP positive in non-transduced P19 cells. GFP+ gates were re-drawn for each promoter set to avoid the ˜10% highest and lowest expressing cells within the GFP+ gate, but the same gate was used for every experimental condition under the same promoter. Triplicate wells of each population (12-15,000 cells/well in a 24-well plate) were collected.
Fluorescence data throughout silencing experiments was obtained using a MACSQuant® VYB flow cytometer (Miltenyi Biotec). EGFP was measured through the 488-nm laser and 525/50 nm band pass filter. Flow cytometry data was analyzed using the FlowJo™ single cell flow cytometry analysis software (Tree Star). After being gated for singlets and viability, GFP+ gates in FlowJo were drawn such that a non-transfected or non-transduced P19 cell population was at 1% GFP+. Median values reported are of cells within the GFP+ gate, both % GFP positive and median are reported with the standard deviation of biological replicates. […]

B1: Candidate 6: Full length SRF-UCOE, SEQ ID NO:1; region between human SURF1 and SURF2 including first introns, chr9 (nucleic acid, listed as Homo sapiens)
DNA: GCACACGACCACAATTCCACTGAAAGCATTTTAATACGGAACTTGTCACTCCCAGGGAGCCTCCGCTCAGCCGGCAGTTGGTTCATTTCAATCCCCACGACAACCCTTCAAAGTGCAGGGCAGACAGCAGGTGGCTCTGCCCAGGCGCCTGGATCACAGCCCGGCCTGCAGCCCTCACCTGGGCGCGGGGAGACCCTGAGGACGCTCCTCCAGGCGGCGCTGGCCGGGGCCTGCGGACACGGACGGGCGGGCTGAGCTCCGGGACCCCTCCCCGCGCCCCGCACCCCGCACCCCGCACCCCGCACCCCGCACCCGGCGCTCACCCGTCCCAGCCCCGCCGCCCGCAGCCCCAGCTGCAACGCAGCCACCGCCGCCATCGCACCCGGCCCCGCGGGCGCTTCCGGGACGCAGGAGGCATCTGCATCCGGGGCGCCGCTGAGTCCCGCCCAGAGCCCCGCCCCCGGCTCCAGGTTCTGCGAGCGGCTTCCGCCGGGCTGCTCCGCGGGCGCGTCGGCCATGAGCGAGTTGCCGGGCGACGTGCGGGCGTTTCTGCGGGAGCACCCGAGCCTGCGGCTCCAGACGGACGCCCGCAAGGTTCGCAGCGCGGGAGGGGAACGGAGTGGCGGAGAAGGGCGCAGTTGGGATGAGGGGCTGAGGGGAGGGCAGGGGAGAGGAGAGGGCAGGGGAGAGGGGAGAGGGGAGAGCAGGAGAGAGGGGAAGGCAGGGGAGAGGGCGCGGCGGGATCAGGGGAGGAGAGGGAAGGGGGCGCGGCAGGAGGGGGCACCAGGGAGCGGAGCCCTGGCCCTCCTGACGTCCTGCCCGCCCACGCGTCCGCAGGTGAGGTGCATCCTGACAGGTCACGAGCTGCCCTGCCGCCTGCCGGAGCTCCAGGTCTACACCCGCGGCAAAAAGTACCAGCGGCTGGTCCGCGCCTCCCCGGCCTTCGACTATGCAGAGTTCGAGCCGCACATCGTGCCCAGCACCAAGAACCCGTAGGTGGTC
GFP positive cells / expression compared to the negative control (Ef1α promoter, final timepoint): 2.7 times
% GFP+ cells at final timepoint (PGK promoter, day 27): 29%
expressing cells / improvement over the negative control (PGK promoter, day 27): 5 fold
% GFP+ cells at final timepoint (RSV promoter, day 26): 76%
% GFP+ cells, representative example (one biological replicate) (RSV promoter, day 26): 79.6%
